Measurements: patent publication US20170202915A1 (TUFTS UNIVERSITY, published 2017)

B1: recombinant full-length galectin-8 (other, UniProt O00214 1-317, looked up)
chain: MMLSLNNLQNIIYNPVIPFVGTIPDQLDPGTLIVIRGHVPSDADRFQVDLQNGSSMKPRADVAFHFNPRFKRAGCIVCNTLINEKWGREEITYDTPFKREKSFEIVIMVLKDKFQVAVNGKHTLLYGHRIGPEKIDTLGIYGKVNIHSIGFSFSSDLQSTQASSLELTEISRENVPKSGTPQLRLPFAARLNTPMGPGRTVVVKGEVNANAKSFNVDLLAGKSKDIALHLNPRLNIKAFVRNSFLQESWGEEERNITSFPFSPGMYFEMIIYCDVREFKVAVNGVHSLEYKHRFKELSSIDTLEINGDIHLLEVRSW
notes: mature; Tandem-repeat lectin with an N-CRD and a C-CRD; also called Gal-8; exogenous Gal-8
B2: podoplanin (receptor, human, UniProt Q86YL7 23-162, looked up)
chain: ASTGQPEDDTETTGLEGGVAMPGAEDDVVTPGTSEDRYKSGLTTLVATSVNSVTGIRIEDLPTSESTVHAQEQSPSATASNVATSHSTEKVDGDTQTTVEKDGLSTVTLVGIIVGVLLAIGFIGAIIVVVMRKMSGRYSP
modifications: O-glycosylated with alpha2,3-sialyl glycans
notes: whole, on cells; Endogenous protein from LEC lysates in the pulldowns and co-immunoprecipitation; also called PDPN

What was measured:
VEGFR-1 = target: T1, VEGFR-1 (UniProt P17948 27-1338, limits assumed); assay: galectin-agarose pulldown from primary LECs, western blot (FIG. 21A)
T1 construct: whole, on cells
Procedure: Primary LECs were incubated with agarose beads (control), and galectin-conjugated agarose beads at 4° C. overnight. Unbound proteins were removed and the bound proteins were eluted with 20 μL of 2× Laemmli sample buffer and analyzed and compared to control input by western blotting. […] LEC lysates incubated with unconjugated beads served as a negative control.

recombinant galectin-3 = target: T2, recombinant galectin-3 (UniProt P17931 2-250); assay: galectin-agarose pulldown from LEC lysates, anti-PDPN western blot (FIG. 7A)
T2 construct: also called Gal-3
T2 sequence (P17931 2-250 limits assumed): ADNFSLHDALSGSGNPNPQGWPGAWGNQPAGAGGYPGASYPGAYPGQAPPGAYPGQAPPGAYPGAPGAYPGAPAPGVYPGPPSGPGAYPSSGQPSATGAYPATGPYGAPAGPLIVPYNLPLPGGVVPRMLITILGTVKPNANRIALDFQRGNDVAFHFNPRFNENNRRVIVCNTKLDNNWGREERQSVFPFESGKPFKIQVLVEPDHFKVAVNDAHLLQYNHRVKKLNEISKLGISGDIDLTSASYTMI
Procedure: Bound proteins were examined and were compared to total cell lysates (input) by western blot using anti-PDPN. […] Primary LECs were transfected with control (mock) or two siRNA that targeted different regions of PDPN. Knockdown efficiency was assessed by western blot using anti-PDPN and anti-β-actin antibodies. […] Primary LECs were transfected with control or PDPN siRNA. […] Data are plotted as mean±SEM and analyzed using Student's t test (FIG. 7C and FIG. 7F). *P<0.05, ***P<0.001 vs corresponding control.
Bound proteins were examined with total cell lysates (input) by western blot using an anti-PDPN antibody.

T1 sequence (P17948 27-1338 limits assumed): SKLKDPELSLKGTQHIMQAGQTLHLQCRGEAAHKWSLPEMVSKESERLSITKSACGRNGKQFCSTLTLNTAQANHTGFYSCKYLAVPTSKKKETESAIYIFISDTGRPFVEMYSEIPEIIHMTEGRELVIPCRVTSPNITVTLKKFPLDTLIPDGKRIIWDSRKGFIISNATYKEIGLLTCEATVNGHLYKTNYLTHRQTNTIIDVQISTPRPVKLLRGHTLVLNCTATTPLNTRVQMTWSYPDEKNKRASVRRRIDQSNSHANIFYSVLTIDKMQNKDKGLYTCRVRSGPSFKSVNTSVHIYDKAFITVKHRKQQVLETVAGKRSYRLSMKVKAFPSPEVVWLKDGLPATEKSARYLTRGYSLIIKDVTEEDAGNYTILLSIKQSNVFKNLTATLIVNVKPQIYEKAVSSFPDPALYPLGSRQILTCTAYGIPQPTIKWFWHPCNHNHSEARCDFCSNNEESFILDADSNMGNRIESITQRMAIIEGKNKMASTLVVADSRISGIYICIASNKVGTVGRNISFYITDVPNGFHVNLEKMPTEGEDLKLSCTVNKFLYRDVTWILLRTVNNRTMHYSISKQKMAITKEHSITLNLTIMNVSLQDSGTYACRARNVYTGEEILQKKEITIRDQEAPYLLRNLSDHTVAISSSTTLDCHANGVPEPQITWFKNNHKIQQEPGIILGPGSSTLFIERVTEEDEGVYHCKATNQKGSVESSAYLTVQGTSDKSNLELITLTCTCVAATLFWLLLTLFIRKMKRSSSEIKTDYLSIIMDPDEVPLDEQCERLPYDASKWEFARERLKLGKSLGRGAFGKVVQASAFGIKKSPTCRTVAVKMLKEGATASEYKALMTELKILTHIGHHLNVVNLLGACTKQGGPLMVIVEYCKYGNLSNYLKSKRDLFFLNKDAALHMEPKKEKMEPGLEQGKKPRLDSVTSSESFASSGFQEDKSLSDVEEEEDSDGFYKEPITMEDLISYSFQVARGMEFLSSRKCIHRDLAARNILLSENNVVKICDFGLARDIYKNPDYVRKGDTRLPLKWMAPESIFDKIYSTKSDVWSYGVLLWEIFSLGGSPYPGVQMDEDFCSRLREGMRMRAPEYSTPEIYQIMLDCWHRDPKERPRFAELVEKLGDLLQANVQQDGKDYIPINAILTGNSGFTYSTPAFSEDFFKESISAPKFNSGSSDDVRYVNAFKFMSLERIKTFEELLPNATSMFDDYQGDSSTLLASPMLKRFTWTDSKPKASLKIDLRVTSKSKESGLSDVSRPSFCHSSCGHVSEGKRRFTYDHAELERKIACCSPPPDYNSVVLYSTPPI

Binder	binding result (VEGFR-1)	binding result (recombinant galectin-3)
B1	no binding	–
B2	–	no binding
